# Measurements as given in patent US20210155910, “IMPROVED REVERSE TRANSCRIPTASE AND METHODS OF USE” (YALE UNIVERSITY, published 2021).
# T1: E.r. maturase (MarathonRT) WT (Eubacterium rectale)
# T1 chain: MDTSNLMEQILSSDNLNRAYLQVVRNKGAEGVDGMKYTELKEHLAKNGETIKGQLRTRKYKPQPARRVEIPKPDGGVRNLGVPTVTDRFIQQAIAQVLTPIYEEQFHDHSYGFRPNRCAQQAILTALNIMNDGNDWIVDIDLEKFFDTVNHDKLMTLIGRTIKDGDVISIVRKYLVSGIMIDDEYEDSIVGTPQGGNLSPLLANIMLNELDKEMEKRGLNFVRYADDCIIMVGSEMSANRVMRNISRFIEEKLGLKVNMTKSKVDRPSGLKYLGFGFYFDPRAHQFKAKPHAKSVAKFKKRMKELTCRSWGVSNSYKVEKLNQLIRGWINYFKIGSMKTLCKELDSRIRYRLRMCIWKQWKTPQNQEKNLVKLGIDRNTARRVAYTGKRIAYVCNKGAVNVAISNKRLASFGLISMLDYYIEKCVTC
# B1: D4A helix of E.r. group II intron (ssRNA)
# RNA: GUCUCGUAUUGCAGAAAUGACAACAUCUGCCGUAACCAAUCGGGUAAAAGGUGGUCAAAUCAAGCGAGAC
# Biological target: T1, E.r. maturase (MarathonRT) WT
# Test: indirect: D4A at 16:1 raises primer incorporation on RepA D3 from 84.1% to 93.0%; Tris pH 8.3, 200 mM KCl, 2 mM MgCl2, 0.6 M trehalose
# Conditions: tags: N-terminal 6xHis-SUMO, cleaved; hairpin
# From the text: The surface of E.r. maturase is enriched with positively charged amino acids, to which primers used for reverse transcription non-specifically binds, and thus the efficiency of primer utilization is compromised. To reduce the non-specific binding, D4A helix (FIG. 12A, originated from E.r. Group II intron) was used in the reaction buffer to block the positively charged residues on the surface of E.r. maturase, attempting to further improve the performance of E.r. maturase in the already optimized buffer (50 mM Tris pH 8.3, 200 mM KCl, 2 mM MgCl₂, 5 mM DTT and 0.6 M trehalose).
binder,measurement,value
B1,binding result,binds
